The text below walks through data of patent publication US20190256582A1.

In assay [1] the target is T1, panel of four distinct ZIKV strains (H/PF/2013; MR766, MRS-OPY and PV10552). In words: cell-based or functional assay.
Assay [2] has as its target T1, panel of four distinct ZIKV strains …. The experiment in a line: cell-based or functional assay. This is another data set of the same source.

Read-outs that look alike come from different tables or passages of the source.

B1: ZKA190 (antibody, V domains shown)
VH: QVQLVESGGGVVQPGRSLRLSCAASGFTFSKYGMHWVRQAPGKGLEWVAVISYEGSNKYYADSVKGRFTISRDNSKNTLYLQMNSLRAEDTAVYYCAKSGTQYYDTTGYEYRGLEYFGYWGQGTLVTVSS
VL: EIVLTQSPGTLSLSPGERATLSCRASQSVSSSYLAWYQQKRGQAPRLLIYDASSRATGIPDRFSGSGSGTDFTLTISRLEPEDFAVYYCQQYGRSRWTFGQGTKVEIK
On to B1, for which the ZIKV neutralization IC50 (four strains, Vero cells, flow cytometry) lay in the range of 0.6 to 8 ng/mL in assay [1] and 0.004 to 0.05 nM in assay [2].
